# Measured values: patent US20140205612A1
# How the values were obtained:
# Test in all cases: cell-based or functional assay
# [1] = target: HIV-1 JR-CSF Env on pseudovirus (HIV-1 JR-CSF) (UniProt P20871)
# [2] = target: 92RW020 Env on pseudovirus (HIV-1 92RW020)
# [3] = target: JR-CSF(Y318A) Env on pseudovirus (HIV-1 JR-CSF) (UniProt P20871)
# [4] = target: JR-FL(E168K) Env on pseudovirus (HIV-1 JR-FL)
# [5] = target: ADA Env on pseudovirus (HIV-1 ADA)
# [6] = target: JR-CSF(1309A) Env on pseudovirus (HIV-1 JR-CSF) (UniProt P20871)
Binder,"IC50 (ug/ml), pseudovirus neutralization, TZM-bl assay [1] [µg/mL]","IC50 (ug/ml), pseudovirus neutralization, TZM-bl assay [2] [µg/mL]","IC50 (ug/ml), pseudovirus neutralization, TZM-bl assay [3] [µg/mL]","IC50 (ug/ml), pseudovirus neutralization, TZM-bl assay [4] [µg/mL]","IC50 (ug/ml), pseudovirus neutralization, TZM-bl assay [5] [µg/mL]","IC50 (ug/ml), pseudovirus neutralization, TZM-bl assay [6] [µg/mL]"
"1503_H05 (PG16) (TCN-119) (antibody, V domains shown) VH: QEKLVESGGGVVQPGGSLRLSCLASGFTFHKYGMHWVRQAPGKGLEWVALISDDGMRKYHSDSMWGRVTISRDNSKNTLYLQFSSLKVEDTAMFFCAREAGGPIWHDDVKYYDFNDGYYNYHYMDVWGKGTIVTVSS VL: QSALTQPASVSGSPGQTITISCNGTRSDVGGFDSVSWYQQSPGKAPKVMVFDVSHRPSGISNRFSGSKSGNTASLTISGLHIEDEGDYFCSSLTDRSHRIFGGGTKVTVLG",0.001,0.02,> 1,0.002,0.003,> 1
"1456_A12 (PG16) (TCN-117) (antibody, V domains shown) VH: HEQLVEAGGGVVQPGGSLRLSCLASGFTFHKYGMHWVRQAPGKGLEWVALISDDGMRKYHSDSMWGRVTISRDNSKNTLYLQFSSLRVEDTAMFFCAREAGGPIWHDDVKYYDFNDGYYNYHYMDVWGKGTKVTVSS VL: QSALTQPASVSGSPGQTITISCNGTSRDVGGFDSVSWYQQSPGKAPKVMVFDVSHRPSGMSNRFSGSKSGNTASLTISGLHIEDEGDYFCSSLTDRSHRIFGGGTKLTVLG",0.001,0.05,> 1,0.003,0.005,> 1
"1469_M23 (PG16) (TCN-118) (antibody, V domains shown) VH: QEKLVESGGGVVQPGGSLRLSCLASGFTFHKYGMHWVRQAPGKGLEWVALISDDGMRKYHSDSMWGRVTISRDNSKNTLYLQFSSLKVEDTAMFFCAREAGGPIWHDDVKYYDFNDGYYNYHYMDVWGKGTTVTVSS VL: QSALTQPASVSGSPGQTITISCNGTRSDVGGFDSVSWYQQSPGRAPKVMVFDVSHRPSGISNRFSGSKSGNTASLTISGLHIEDEGDYFCSSLTDRSHRIFGGGTKLTVLG",0.002,0.05,> 1,0.005,0.005,> 1
"1489_I13 (PG16) (TCN-120) (antibody, V domains shown) VH: QEQLLESGGGVVQPGGSLRLSCLASGFTFHKYGMHWVRQAPGKGLEWVALISDDGMRKYHSNSMWGRVTISRDNSKNTLYLQFSSLKVEDTAMFFCAREAGGPIWHDDVKYYDFNDGYYNYHYMDVWGKGTTVTVSS VL: QSALTQPASVSGSPGQTITISCNGTSSDVGGFDSVSWYQQSPGKAPKVMVFDVSHRPSGISNRFSGSKSGNTASLTISGLHIEDEGDYFCSSLTDRSHRIFGGGTKVTVLG",0.002,0.03,> 1,0.005,0.008,> 1
